The results in this text go back to patent publication US20180312587A1 (ADURO BIOTECH HOLDINGS EUROPE B V, published 2018).

The assay deals with T1, human SIRPα variant 1 (human, UniProt P78324 31-504).
T1 construct: full length ORF on transfected CHO-K1 or HEK293 cells; entry includes the signal peptide; also called hSIRPαV1; SIRPαV1
The assay can be described thus: flow cytometry, CHO-K1.hSIRPαV1 stable cells. The procedure:
Binding of the parental and humanized antibodies to hSIRPα was assessed by flow cytometry using the CHO-K1.hSIRPαV1 stable cell line. CHO-K1.hSIRPαV1 cells were seeded in 96-well round bottomed tissue culture plates and incubated for 40 minutes with the humanized hSIRPα.40A antibody variants (20 μg/mL and dilutions thereof) in PBS/1% BSA at 4° C. […] After this labeling procedure, cells were washed two times, resuspended in PBS/1% BSA, containing 0.1 μg/mL DAPI (BioLegend), and analysed by flow cytometry on the FACSVerse (BD Biosciences). Data were processed and analysed with FlowJo V10 software (FlowJo, LLC).

T1 sequence (P78324 31-504 limits assumed, change not shown): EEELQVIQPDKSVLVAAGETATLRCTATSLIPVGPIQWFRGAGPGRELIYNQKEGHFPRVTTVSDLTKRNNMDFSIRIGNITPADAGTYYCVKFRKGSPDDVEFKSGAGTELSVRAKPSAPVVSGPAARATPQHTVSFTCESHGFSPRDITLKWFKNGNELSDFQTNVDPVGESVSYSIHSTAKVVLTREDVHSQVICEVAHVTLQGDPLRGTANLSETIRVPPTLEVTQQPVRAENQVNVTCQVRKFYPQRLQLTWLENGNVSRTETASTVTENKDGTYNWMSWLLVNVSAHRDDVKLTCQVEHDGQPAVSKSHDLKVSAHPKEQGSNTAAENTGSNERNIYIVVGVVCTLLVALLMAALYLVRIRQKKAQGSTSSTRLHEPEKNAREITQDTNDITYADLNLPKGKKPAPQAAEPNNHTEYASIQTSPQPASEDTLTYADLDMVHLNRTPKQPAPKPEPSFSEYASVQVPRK

B1: hSIRPα.40A (antibody, mouse IgG1, kappa, V domains shown)
VH: EVQFQQSGTVLARPGTSVKMSCKASGSTFTSYWMHWVKQGPGQGLQWIGAIYPVNNDTTYNQKFKGKAELTVVTSTSTAYMEVSSLTNEDSAVYYCTRSFYYSLDAAWFVYWGQGTLVTVSA
VL: DIQMTQSPSSLSASLGERVSLTCRASQDIGSRLNWLQQEPDGTIKRLIYATSSLDSGVPKRFSGSRSGSDYSLTISGLESEDFVDYYCLQYASSPFTFGGGTKLEINR
notes: mouse antibody, full chains without signal peptide; also called mouse hSIRPα.40A
In turn, B1 had an EC50 of 0.022 nM.
